Reference: patent US20150017195A1 (WASHINGTON UNIVERSITY, published 2015)

Legend:
[1] = biological target: human coxsackie-adenovirus receptor (CAR) stably expressed on CHO-hCAR cells (human) (UniProt P78310)
[2] = biological target: human coxsackie-adenovirus receptor (CAR) stably expressed on CHO-hCAR cells (human) (UniProt P78310); assay: cell-based or functional assay
[3] = biological target: T1, human coxsackie-adenovirus receptor (CAR) stably expressed on CHO-hCAR cells (human, UniProt P78310 20-365); assay: cell-based or functional assay
T1 sequence: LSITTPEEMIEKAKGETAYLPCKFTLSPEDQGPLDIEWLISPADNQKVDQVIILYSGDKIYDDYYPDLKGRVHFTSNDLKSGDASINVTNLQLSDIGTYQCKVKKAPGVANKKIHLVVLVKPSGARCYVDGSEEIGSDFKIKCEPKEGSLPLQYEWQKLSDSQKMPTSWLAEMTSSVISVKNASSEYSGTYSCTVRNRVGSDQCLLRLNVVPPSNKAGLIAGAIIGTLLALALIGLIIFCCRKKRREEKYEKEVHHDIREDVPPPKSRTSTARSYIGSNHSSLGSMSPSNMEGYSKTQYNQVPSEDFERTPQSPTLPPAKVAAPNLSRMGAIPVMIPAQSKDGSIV

Row | Molecule | IC50 (read off the curve); inhibition of luciferase gene transfer of Ad5Luc1 into CHO-hCAR cells [1] [µg/mL] | inhibition of Ad5Luc1 gene transfer to CHO-hCAR cells by knob protein at 50 µg/ml [2] [%] | luciferase activity in CHO-hCAR cells versus CHO cells (gene transfer assay) [3] [fold]
1 | recombinant HAdV-5 fiber knob protein (from UniProt P11818 387-581) | 1 | > 96 | 
2 | Ad5Luc1 control vector containing the HAdV-5 wild type fiber (other) MKRARPSEDTFNPVYPYDTETGPPTVPFLTPPFVSPNGFQESPPGVLSLRLSEPLVTSNGMLALKMGNGLSLDEAGNLTSQNVTTVSPPLKKTKSNINLEISAPLTVTSEALTVAAAAPLMVAGNTLTMQSQAPLTVHDSKLSIATQGPLTVSEGKLALQTSGPLTTTDSSTLTITASPPLTTATGSLGIDLKEPIYTQNGKLGLKYGAPLHVTDDLNTLTVATGPGVTINNTSLQTKVTGALGFDSQGNMQLNVAGGLRIDSQNRRLILDVSYPFDAQNQLNLRLGQGPLFINSAHNLDINYNKGLYLFTASNNSKKLEVNLSTAKGLMFDATAIAINAGDGLEFGSPNAPNTNPLKTKIGHGLEFDSNKAMVPKLGTGLSFDSTGAITVGNKNNDKLTLWTTPAPSPNCRLNAEKDAKLTLVLTKCGSQILATVSVLAVKGSLAPISGTVQSAHLIIRFDENGVLLNNSFLDPEYWNFRNGDLTEGTAYTNAVGFMPNLSAYPKSHGKTAKSNIVSQVYLNGDKTKPVTLTITLNGTQETGDTTPSAYSMSFSWDWSGHNYINEIFATSSYTFSYIAQE |  |  | 80
